Data as given in publication PMC8605356.

Experiments:
[1] = target: α-D-fructofuranosidase and difructose dianhydride I synthase/hydrolase from Bifidobacterium dentium (Bifidobacterium dentium JCM 1195); experiment: crystal structure; sitting drop vapor diffusion at 20 °C, 10 mg/ml αFFase1 in 5 mM Na acetate pH 6.0, reservoir 20% PEG 3350 and 0.2 M disodium tartrate; ligand-free and cocrystals with D-fructose or D-arabinose; hexamer in the asymmetric unit
[2] = target: α-D-fructofuranosidase and difructose dianhydride I synthase/hydrolase from Bifidobacterium dentium (Bifidobacterium dentium JCM 1195); experiment: SEC; size-exclusion chromatography of the purified protein; conditions of this analysis not told (the purification used Hiload 16/60 Superdex 200 pg in 25 mM Tris HCl pH 7.0, 300 mM NaCl)

stoichiometry N [1]: 6
stoichiometry N [2]: 6
Substance: α-D-fructofuranosidase and difructose dianhydride I synthase/hydrolase from Bifidobacterium dentium (enzyme)
